According to US10087225B2, “Formulation of MK2 inhibitor peptides” (MOERAE MATRIX, INC., priority 2015, dated 2018):

How the values were obtained:
Assay in all cases: Kinase Profiling Assay
Type in all cases: biochemical
Details in all cases: for % activity: 100 μM
ZIPK(h) = ZIPK(h) (Homo sapiens, UniProt O43293)
BrSK1(h) = target: T1, BrSK1(h) (Homo sapiens, UniProt Q8TDC3)
T1 sequence (Q8TDC3 1-778): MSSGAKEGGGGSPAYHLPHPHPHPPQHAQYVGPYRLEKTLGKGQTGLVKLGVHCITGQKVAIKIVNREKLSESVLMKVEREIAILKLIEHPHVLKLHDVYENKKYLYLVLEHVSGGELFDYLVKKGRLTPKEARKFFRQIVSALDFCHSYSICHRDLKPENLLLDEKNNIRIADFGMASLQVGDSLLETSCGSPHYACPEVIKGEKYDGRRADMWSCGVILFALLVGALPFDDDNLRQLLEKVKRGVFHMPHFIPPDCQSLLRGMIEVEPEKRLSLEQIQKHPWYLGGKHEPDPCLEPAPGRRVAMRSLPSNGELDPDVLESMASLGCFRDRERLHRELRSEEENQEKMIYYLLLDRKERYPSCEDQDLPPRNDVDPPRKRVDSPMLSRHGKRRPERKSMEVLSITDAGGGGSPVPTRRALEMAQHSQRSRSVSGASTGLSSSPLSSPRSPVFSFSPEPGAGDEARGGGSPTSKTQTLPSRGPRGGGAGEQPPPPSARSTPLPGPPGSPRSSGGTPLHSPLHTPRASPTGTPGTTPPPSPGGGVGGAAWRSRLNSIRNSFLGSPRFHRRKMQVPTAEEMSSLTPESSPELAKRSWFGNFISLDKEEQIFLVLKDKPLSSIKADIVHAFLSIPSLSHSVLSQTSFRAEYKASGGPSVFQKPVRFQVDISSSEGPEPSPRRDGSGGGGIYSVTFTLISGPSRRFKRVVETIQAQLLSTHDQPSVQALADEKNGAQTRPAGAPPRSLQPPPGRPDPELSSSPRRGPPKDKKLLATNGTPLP

CSK(h) = CSK(h) (Homo sapiens, UniProt P41240)
Met(D1246H)(h) = Met(D1246H)(h) (Homo sapiens, UniProt P08581, D1228H)
ARK5(h) = target: T2, ARK5(h) (Homo sapiens, UniProt O60285)
T2 sequence (O60285 1-661): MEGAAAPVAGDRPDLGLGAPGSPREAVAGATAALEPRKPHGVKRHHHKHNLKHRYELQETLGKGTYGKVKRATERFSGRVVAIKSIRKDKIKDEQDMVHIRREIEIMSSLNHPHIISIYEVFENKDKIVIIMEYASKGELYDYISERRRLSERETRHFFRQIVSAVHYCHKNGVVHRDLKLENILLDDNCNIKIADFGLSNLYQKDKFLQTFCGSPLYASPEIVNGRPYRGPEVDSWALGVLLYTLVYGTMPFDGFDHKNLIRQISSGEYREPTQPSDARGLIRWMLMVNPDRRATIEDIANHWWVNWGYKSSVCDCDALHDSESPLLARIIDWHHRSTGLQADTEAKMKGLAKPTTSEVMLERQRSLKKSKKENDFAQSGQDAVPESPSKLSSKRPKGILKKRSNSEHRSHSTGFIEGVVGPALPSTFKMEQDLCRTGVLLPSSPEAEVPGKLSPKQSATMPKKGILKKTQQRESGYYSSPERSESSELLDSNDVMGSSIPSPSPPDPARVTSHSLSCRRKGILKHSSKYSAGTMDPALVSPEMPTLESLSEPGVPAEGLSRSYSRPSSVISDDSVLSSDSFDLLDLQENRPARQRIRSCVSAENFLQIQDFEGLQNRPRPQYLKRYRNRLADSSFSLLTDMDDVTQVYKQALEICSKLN

ALK4(h) = target: T3, ALK4(h) (Homo sapiens, UniProt P36896)
T3 sequence (P36896 24-505): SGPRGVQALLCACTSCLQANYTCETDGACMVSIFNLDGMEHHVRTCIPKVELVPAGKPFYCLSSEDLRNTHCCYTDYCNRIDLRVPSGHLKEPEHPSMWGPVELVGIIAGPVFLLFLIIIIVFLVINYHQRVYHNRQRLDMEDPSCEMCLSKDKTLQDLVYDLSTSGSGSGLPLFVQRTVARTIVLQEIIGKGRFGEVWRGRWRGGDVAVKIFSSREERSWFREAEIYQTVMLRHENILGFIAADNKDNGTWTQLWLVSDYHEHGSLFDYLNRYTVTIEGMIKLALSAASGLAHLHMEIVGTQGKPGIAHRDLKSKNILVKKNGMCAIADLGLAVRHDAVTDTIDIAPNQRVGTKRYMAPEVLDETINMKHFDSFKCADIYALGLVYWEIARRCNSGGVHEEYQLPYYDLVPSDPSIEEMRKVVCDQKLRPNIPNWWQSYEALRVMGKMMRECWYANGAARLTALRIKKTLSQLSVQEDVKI

PKG1α(h) = target: T4, PKG1α(h) (Homo sapiens, UniProt Q13976)
T4 sequence (Q13976 1-671): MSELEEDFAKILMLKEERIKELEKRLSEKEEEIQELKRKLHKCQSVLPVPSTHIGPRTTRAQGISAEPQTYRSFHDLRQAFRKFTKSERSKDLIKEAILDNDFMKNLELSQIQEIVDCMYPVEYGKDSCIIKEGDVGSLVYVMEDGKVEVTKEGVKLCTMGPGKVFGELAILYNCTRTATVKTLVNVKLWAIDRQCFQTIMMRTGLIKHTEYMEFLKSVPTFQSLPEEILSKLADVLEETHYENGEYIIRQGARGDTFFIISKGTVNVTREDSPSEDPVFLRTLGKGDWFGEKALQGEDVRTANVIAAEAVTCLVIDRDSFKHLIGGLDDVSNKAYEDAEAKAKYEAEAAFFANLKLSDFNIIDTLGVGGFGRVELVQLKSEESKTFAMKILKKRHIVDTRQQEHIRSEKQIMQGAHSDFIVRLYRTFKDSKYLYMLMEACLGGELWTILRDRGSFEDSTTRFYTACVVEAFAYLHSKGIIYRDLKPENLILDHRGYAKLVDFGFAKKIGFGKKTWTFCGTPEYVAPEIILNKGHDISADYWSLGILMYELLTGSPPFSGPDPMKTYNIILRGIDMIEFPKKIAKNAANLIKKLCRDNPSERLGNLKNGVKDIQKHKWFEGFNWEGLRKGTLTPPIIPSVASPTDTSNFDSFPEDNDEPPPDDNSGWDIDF

Rsk4(h) = Rsk4(h) (Homo sapiens, UniProt Q9UK32)
Tie2(h) = Tie2(h) (Homo sapiens, UniProt Q02763)
Tie2(h), sequence (Q02763 23-1124): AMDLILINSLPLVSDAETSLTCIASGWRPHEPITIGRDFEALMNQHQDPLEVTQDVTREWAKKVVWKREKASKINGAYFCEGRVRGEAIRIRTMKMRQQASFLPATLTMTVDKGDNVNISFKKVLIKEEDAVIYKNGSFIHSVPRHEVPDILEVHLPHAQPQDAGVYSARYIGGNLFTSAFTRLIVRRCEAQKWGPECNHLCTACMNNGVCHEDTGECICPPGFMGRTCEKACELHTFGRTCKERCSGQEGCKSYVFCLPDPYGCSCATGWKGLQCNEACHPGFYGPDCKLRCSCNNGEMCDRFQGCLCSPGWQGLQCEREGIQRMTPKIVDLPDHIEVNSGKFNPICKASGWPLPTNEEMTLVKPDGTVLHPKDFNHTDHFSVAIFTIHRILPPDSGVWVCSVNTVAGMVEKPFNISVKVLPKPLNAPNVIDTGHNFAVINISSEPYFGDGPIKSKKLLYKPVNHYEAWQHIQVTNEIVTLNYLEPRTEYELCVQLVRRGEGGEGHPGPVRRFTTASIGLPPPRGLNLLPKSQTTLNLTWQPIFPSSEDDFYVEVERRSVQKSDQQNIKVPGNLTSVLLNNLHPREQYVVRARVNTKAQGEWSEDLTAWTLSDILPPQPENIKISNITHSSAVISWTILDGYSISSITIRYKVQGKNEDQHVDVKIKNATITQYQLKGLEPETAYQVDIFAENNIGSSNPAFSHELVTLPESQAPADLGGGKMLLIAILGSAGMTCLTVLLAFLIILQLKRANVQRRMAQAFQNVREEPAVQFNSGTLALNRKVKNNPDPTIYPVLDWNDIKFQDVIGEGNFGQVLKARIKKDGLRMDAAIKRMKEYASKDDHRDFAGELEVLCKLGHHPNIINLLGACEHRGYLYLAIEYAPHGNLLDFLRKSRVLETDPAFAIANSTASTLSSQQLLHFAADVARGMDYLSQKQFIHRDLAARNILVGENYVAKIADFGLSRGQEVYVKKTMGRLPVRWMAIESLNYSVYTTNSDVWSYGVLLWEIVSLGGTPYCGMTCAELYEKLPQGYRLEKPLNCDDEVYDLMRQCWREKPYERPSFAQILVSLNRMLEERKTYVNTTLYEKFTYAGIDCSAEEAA

ZIPK(h), sequence (O43293 whole entry): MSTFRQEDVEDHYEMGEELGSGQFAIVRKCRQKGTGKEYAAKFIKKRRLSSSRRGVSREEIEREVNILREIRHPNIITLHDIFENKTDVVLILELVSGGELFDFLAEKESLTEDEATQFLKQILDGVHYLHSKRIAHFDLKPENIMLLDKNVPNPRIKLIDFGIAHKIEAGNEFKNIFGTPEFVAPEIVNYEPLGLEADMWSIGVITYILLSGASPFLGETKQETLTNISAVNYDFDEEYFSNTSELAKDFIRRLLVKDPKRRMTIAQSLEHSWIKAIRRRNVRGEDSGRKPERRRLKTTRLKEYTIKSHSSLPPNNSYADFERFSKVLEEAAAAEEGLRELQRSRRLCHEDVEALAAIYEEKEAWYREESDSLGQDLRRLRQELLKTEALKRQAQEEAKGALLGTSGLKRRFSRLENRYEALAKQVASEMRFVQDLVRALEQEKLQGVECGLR
CSK(h), sequence (P41240 whole entry): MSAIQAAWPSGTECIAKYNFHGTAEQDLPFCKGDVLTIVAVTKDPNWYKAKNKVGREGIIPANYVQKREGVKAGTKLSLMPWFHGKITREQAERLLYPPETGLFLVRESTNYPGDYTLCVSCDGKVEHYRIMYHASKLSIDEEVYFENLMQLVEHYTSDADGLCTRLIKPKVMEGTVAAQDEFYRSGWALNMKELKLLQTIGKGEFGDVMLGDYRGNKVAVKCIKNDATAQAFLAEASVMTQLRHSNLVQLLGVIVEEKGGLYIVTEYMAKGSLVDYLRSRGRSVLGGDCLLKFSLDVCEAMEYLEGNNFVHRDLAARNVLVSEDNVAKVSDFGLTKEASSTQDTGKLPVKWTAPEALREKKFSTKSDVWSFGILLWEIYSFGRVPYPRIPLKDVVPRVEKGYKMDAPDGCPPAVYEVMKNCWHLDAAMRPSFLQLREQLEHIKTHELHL
Rsk4(h), sequence (Q9UK32 whole entry): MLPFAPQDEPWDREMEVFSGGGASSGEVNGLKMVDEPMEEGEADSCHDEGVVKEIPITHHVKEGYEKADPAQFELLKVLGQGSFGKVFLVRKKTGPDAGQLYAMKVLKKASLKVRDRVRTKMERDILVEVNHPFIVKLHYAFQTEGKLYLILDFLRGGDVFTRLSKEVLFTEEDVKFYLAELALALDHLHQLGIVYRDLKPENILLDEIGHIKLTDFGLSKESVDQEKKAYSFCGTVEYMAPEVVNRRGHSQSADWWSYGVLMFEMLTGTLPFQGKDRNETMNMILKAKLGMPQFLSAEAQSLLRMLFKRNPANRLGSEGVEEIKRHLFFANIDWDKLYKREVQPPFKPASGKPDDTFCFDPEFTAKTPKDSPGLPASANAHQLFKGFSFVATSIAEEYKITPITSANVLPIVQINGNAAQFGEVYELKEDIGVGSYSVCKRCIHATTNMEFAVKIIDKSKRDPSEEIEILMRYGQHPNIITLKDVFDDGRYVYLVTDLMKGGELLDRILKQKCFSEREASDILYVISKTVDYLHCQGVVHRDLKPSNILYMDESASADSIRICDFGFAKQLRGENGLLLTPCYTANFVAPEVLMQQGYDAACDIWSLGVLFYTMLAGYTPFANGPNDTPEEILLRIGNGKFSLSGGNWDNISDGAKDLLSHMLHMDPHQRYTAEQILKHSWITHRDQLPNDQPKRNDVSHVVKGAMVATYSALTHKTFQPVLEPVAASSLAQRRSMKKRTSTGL

Substance	activity at 100 µM (ZIPK(h))	activity at 100 µM (BrSK1(h))	activity at 100 µM (CSK(h))	activity at 100 µM (Met(D1246H)(h))	activity at 100 µM (ARK5(h))	activity at 100 µM (ALK4(h))	activity at 100 µM (PKG1α(h))	activity at 100 µM (Rsk4(h))	activity at 100 µM (Tie2(h))	% activity (ZIPK(h))	% activity (BrSK1(h))	% activity (CSK(h))	% activity (Met(D1246H)(h))	% activity (ARK5(h))	% activity (ALK4(h))	% activity (PKG1α(h))	% activity (Rsk4(h))	% activity (Tie2(h))
H-YARAAARQARAKALARQLGVAA-OH [MMI-0100]	80%	100%	70%	99%	108%	124%	82%	99%	28%	–	–	–	–	–	–	–	–	–
YARAAARQARAKALNRQLGVA (Mammalian) [MMI-0200]	–	–	–	–	–	–	–	–	–	67%	93%	33%	139%	93%	152%	70%	125%	53%
HRRIKAWLKKIKALARQLGVAA (Mammalian) [MMI-0500]	–	–	–	–	–	–	–	–	–	1%	72%	2%	150%	20%	81%	25%	29%	22%
